Data published in US20220298218A1 (ANTAG THERAPEUTICS, published 2022).
*1 amine or outer side, *2 acyl side, *3 side chain or, on linkers, in order; H or OH if unused. Where no end group is shown, it is not given here. Side-chain parts run from the residue outwards. The star is where a group is joined. C18 diacid = O=C(O)CCCCCCCCCCCCCCCCC(=O)*; C16 diacid = O=C(O)CCCCCCCCCCCCCCC(=O)*; γGlu = O=C(O)[C@H](CCC(=O)[*:2])N[*:1]; AEEA = NCCOCCOCC(=O)O

T1: human GIP receptor (human, UniProt P48546 22-466)
T1 sequence (looked up): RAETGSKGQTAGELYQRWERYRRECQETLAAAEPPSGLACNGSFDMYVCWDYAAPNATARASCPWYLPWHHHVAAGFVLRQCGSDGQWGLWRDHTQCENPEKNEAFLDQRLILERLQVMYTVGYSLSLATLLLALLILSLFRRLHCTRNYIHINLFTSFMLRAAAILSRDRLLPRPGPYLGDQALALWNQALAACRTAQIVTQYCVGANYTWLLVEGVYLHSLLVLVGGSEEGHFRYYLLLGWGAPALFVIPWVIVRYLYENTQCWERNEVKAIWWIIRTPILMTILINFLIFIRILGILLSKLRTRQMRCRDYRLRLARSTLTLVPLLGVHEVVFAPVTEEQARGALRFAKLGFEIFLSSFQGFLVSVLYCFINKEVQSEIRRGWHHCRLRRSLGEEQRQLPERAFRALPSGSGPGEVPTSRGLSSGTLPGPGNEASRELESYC


Molecular target: T1, human GIP receptor
Assay: cell-based or functional assay

Binder | cAMP antagonism | cAMP antagonism % inhib | cAMP antagonism log
TFISDYK([AEEA-AEEA-AEEA-γGlu-C18 diacid])IAMDRIHQQDFVNWLLAQRGRRNDW-OH (N-terminus assumed; SMILES CC[C@H](C)[C@H](NC(=O)[C@H](CCCCNC(=O)COCCOCCNC(=O)COCCOCCNC(=O)COCCOCCNC(=O)CC[C@H](NC(=O)CCCCCCCCCCCCCCCCC(=O)O)C(=O)O)NC(=O)[C@H](Cc1ccc(O)cc1)NC(=O)[C@H](CC(=O)O)NC(=O)[C@H](CO)NC(=O)[C@@H](NC(=O)[C@H](Cc1ccccc1)NC(=O)[C@@H](N)[C@@H](C)O)[C@@H](C)CC)C(=O)N[C@@H](C)C(=O)N[C@@H](CCSC)C(=O)N[C@@H](CC(=O)O)C(=O)N[C@@H](CCCNC(=N)N)C(=O)N[C@H](C(=O)N[C@@H](Cc1c[nH]cn1)C(=O)N[C@@H](CCC(N)=O)C(=O)N[C@@H](CCC(N)=O)C(=O)N[C@@H](CC(=O)O)C(=O)N[C@@H](Cc1ccccc1)C(=O)N[C@H](C(=O)N[C@@H](CC(N)=O)C(=O)N[C@@H](Cc1c[nH]c2ccccc12)C(=O)N[C@@H](CC(C)C)C(=O)N[C@@H](CC(C)C)C(=O)N[C@@H](C)C(=O)N[C@@H](CCC(N)=O)C(=O)N[C@@H](CCCNC(=N)N)C(=O)NCC(=O)N[C@@H](CCCNC(=N)N)C(=O)N[C@@H](CCCNC(=N)N)C(=O)N[C@@H](CC(N)=O)C(=O)N[C@@H](CC(=O)O)C(=O)N[C@@H](Cc1c[nH]c2ccccc12)C(=O)O)C(C)C)[C@@H](C)CC) [AT430] | 153 nM | 100% | -6.8 log M
TFISDYK([AEEA-AEEA-AEEA-γGlu-C16 diacid])IAMDRIHQQDFVNWLLAQRGRRNDW-OH (N-terminus assumed; SMILES CC[C@H](C)[C@H](NC(=O)[C@H](CCCCNC(=O)COCCOCCNC(=O)COCCOCCNC(=O)COCCOCCNC(=O)CC[C@H](NC(=O)CCCCCCCCCCCCCCC(=O)O)C(=O)O)NC(=O)[C@H](Cc1ccc(O)cc1)NC(=O)[C@H](CC(=O)O)NC(=O)[C@H](CO)NC(=O)[C@@H](NC(=O)[C@H](Cc1ccccc1)NC(=O)[C@@H](N)[C@@H](C)O)[C@@H](C)CC)C(=O)N[C@@H](C)C(=O)N[C@@H](CCSC)C(=O)N[C@@H](CC(=O)O)C(=O)N[C@@H](CCCNC(=N)N)C(=O)N[C@H](C(=O)N[C@@H](Cc1c[nH]cn1)C(=O)N[C@@H](CCC(N)=O)C(=O)N[C@@H](CCC(N)=O)C(=O)N[C@@H](CC(=O)O)C(=O)N[C@@H](Cc1ccccc1)C(=O)N[C@H](C(=O)N[C@@H](CC(N)=O)C(=O)N[C@@H](Cc1c[nH]c2ccccc12)C(=O)N[C@@H](CC(C)C)C(=O)N[C@@H](CC(C)C)C(=O)N[C@@H](C)C(=O)N[C@@H](CCC(N)=O)C(=O)N[C@@H](CCCNC(=N)N)C(=O)NCC(=O)N[C@@H](CCCNC(=N)N)C(=O)N[C@@H](CCCNC(=N)N)C(=O)N[C@@H](CC(N)=O)C(=O)N[C@@H](CC(=O)O)C(=O)N[C@@H](Cc1c[nH]c2ccccc12)C(=O)O)C(C)C)[C@@H](C)CC) [AT428] | 296 nM | 90% | -6.5 log M
TFISDYK([AEEA-AEEA-AEEA-γGlu-C18 diacid])IAMDRIHQQDFVNWLLAQRGPSSGAPPPS-OH (N-terminus assumed; SMILES CC[C@H](C)[C@H](NC(=O)[C@H](CCCCNC(=O)COCCOCCNC(=O)COCCOCCNC(=O)COCCOCCNC(=O)CC[C@H](NC(=O)CCCCCCCCCCCCCCCCC(=O)O)C(=O)O)NC(=O)[C@H](Cc1ccc(O)cc1)NC(=O)[C@H](CC(=O)O)NC(=O)[C@H](CO)NC(=O)[C@@H](NC(=O)[C@H](Cc1ccccc1)NC(=O)[C@@H](N)[C@@H](C)O)[C@@H](C)CC)C(=O)N[C@@H](C)C(=O)N[C@@H](CCSC)C(=O)N[C@@H](CC(=O)O)C(=O)N[C@@H](CCCNC(=N)N)C(=O)N[C@H](C(=O)N[C@@H](Cc1c[nH]cn1)C(=O)N[C@@H](CCC(N)=O)C(=O)N[C@@H](CCC(N)=O)C(=O)N[C@@H](CC(=O)O)C(=O)N[C@@H](Cc1ccccc1)C(=O)N[C@H](C(=O)N[C@@H](CC(N)=O)C(=O)N[C@@H](Cc1c[nH]c2ccccc12)C(=O)N[C@@H](CC(C)C)C(=O)N[C@@H](CC(C)C)C(=O)N[C@@H](C)C(=O)N[C@@H](CCC(N)=O)C(=O)N[C@@H](CCCNC(=N)N)C(=O)NCC(=O)N1CCC[C@H]1C(=O)N[C@@H](CO)C(=O)N[C@@H](CO)C(=O)NCC(=O)N[C@@H](C)C(=O)N1CCC[C@H]1C(=O)N1CCC[C@H]1C(=O)N1CCC[C@H]1C(=O)N[C@@H](CO)C(=O)O)C(C)C)[C@@H](C)CC) [AT446] | 152 nM | 100% | -6.8 log M
TFISDYK([AEEA-AEEA-AEEA-γGlu-C16 diacid])IAMDRIHQQDFVNWLLAQRGPSSGAPPPS-OH (N-terminus assumed; SMILES CC[C@H](C)[C@H](NC(=O)[C@H](CCCCNC(=O)COCCOCCNC(=O)COCCOCCNC(=O)COCCOCCNC(=O)CC[C@H](NC(=O)CCCCCCCCCCCCCCC(=O)O)C(=O)O)NC(=O)[C@H](Cc1ccc(O)cc1)NC(=O)[C@H](CC(=O)O)NC(=O)[C@H](CO)NC(=O)[C@@H](NC(=O)[C@H](Cc1ccccc1)NC(=O)[C@@H](N)[C@@H](C)O)[C@@H](C)CC)C(=O)N[C@@H](C)C(=O)N[C@@H](CCSC)C(=O)N[C@@H](CC(=O)O)C(=O)N[C@@H](CCCNC(=N)N)C(=O)N[C@H](C(=O)N[C@@H](Cc1c[nH]cn1)C(=O)N[C@@H](CCC(N)=O)C(=O)N[C@@H](CCC(N)=O)C(=O)N[C@@H](CC(=O)O)C(=O)N[C@@H](Cc1ccccc1)C(=O)N[C@H](C(=O)N[C@@H](CC(N)=O)C(=O)N[C@@H](Cc1c[nH]c2ccccc12)C(=O)N[C@@H](CC(C)C)C(=O)N[C@@H](CC(C)C)C(=O)N[C@@H](C)C(=O)N[C@@H](CCC(N)=O)C(=O)N[C@@H](CCCNC(=N)N)C(=O)NCC(=O)N1CCC[C@H]1C(=O)N[C@@H](CO)C(=O)N[C@@H](CO)C(=O)NCC(=O)N[C@@H](C)C(=O)N1CCC[C@H]1C(=O)N1CCC[C@H]1C(=O)N1CCC[C@H]1C(=O)N[C@@H](CO)C(=O)O)C(C)C)[C@@H](C)CC) [AT444] | 153 nM | 100% | -6.8 log M
TFISDYK([AEEA-AEEA-γGlu-C18 diacid])IAMDRIHQQDFVNWLLAQRGPSSGAPPPS-OH (N-terminus assumed; SMILES CC[C@H](C)[C@H](NC(=O)[C@H](CCCCNC(=O)COCCOCCNC(=O)COCCOCCNC(=O)CC[C@H](NC(=O)CCCCCCCCCCCCCCCCC(=O)O)C(=O)O)NC(=O)[C@H](Cc1ccc(O)cc1)NC(=O)[C@H](CC(=O)O)NC(=O)[C@H](CO)NC(=O)[C@@H](NC(=O)[C@H](Cc1ccccc1)NC(=O)[C@@H](N)[C@@H](C)O)[C@@H](C)CC)C(=O)N[C@@H](C)C(=O)N[C@@H](CCSC)C(=O)N[C@@H](CC(=O)O)C(=O)N[C@@H](CCCNC(=N)N)C(=O)N[C@H](C(=O)N[C@@H](Cc1c[nH]cn1)C(=O)N[C@@H](CCC(N)=O)C(=O)N[C@@H](CCC(N)=O)C(=O)N[C@@H](CC(=O)O)C(=O)N[C@@H](Cc1ccccc1)C(=O)N[C@H](C(=O)N[C@@H](CC(N)=O)C(=O)N[C@@H](Cc1c[nH]c2ccccc12)C(=O)N[C@@H](CC(C)C)C(=O)N[C@@H](CC(C)C)C(=O)N[C@@H](C)C(=O)N[C@@H](CCC(N)=O)C(=O)N[C@@H](CCCNC(=N)N)C(=O)NCC(=O)N1CCC[C@H]1C(=O)N[C@@H](CO)C(=O)N[C@@H](CO)C(=O)NCC(=O)N[C@@H](C)C(=O)N1CCC[C@H]1C(=O)N1CCC[C@H]1C(=O)N1CCC[C@H]1C(=O)N[C@@H](CO)C(=O)O)C(C)C)[C@@H](C)CC) [AT445] | 47 nM | 85% | -7.3 log M
TFISDYK([AEEA-AEEA-γGlu-C16 diacid])IAMDRIHQQDFVNWLLAQRGPSSGAPPPS-OH (N-terminus assumed; SMILES CC[C@H](C)[C@H](NC(=O)[C@H](CCCCNC(=O)COCCOCCNC(=O)COCCOCCNC(=O)CC[C@H](NC(=O)CCCCCCCCCCCCCCC(=O)O)C(=O)O)NC(=O)[C@H](Cc1ccc(O)cc1)NC(=O)[C@H](CC(=O)O)NC(=O)[C@H](CO)NC(=O)[C@@H](NC(=O)[C@H](Cc1ccccc1)NC(=O)[C@@H](N)[C@@H](C)O)[C@@H](C)CC)C(=O)N[C@@H](C)C(=O)N[C@@H](CCSC)C(=O)N[C@@H](CC(=O)O)C(=O)N[C@@H](CCCNC(=N)N)C(=O)N[C@H](C(=O)N[C@@H](Cc1c[nH]cn1)C(=O)N[C@@H](CCC(N)=O)C(=O)N[C@@H](CCC(N)=O)C(=O)N[C@@H](CC(=O)O)C(=O)N[C@@H](Cc1ccccc1)C(=O)N[C@H](C(=O)N[C@@H](CC(N)=O)C(=O)N[C@@H](Cc1c[nH]c2ccccc12)C(=O)N[C@@H](CC(C)C)C(=O)N[C@@H](CC(C)C)C(=O)N[C@@H](C)C(=O)N[C@@H](CCC(N)=O)C(=O)N[C@@H](CCCNC(=N)N)C(=O)NCC(=O)N1CCC[C@H]1C(=O)N[C@@H](CO)C(=O)N[C@@H](CO)C(=O)NCC(=O)N[C@@H](C)C(=O)N1CCC[C@H]1C(=O)N1CCC[C@H]1C(=O)N1CCC[C@H]1C(=O)N[C@@H](CO)C(=O)O)C(C)C)[C@@H](C)CC) [AT443] | 171 nM | 100% | -6.8 log M
